Experimental data from patent US20170174789A1 (Regeneron, published 2017).

T1: hTie2-mFc (human)
T1 chain: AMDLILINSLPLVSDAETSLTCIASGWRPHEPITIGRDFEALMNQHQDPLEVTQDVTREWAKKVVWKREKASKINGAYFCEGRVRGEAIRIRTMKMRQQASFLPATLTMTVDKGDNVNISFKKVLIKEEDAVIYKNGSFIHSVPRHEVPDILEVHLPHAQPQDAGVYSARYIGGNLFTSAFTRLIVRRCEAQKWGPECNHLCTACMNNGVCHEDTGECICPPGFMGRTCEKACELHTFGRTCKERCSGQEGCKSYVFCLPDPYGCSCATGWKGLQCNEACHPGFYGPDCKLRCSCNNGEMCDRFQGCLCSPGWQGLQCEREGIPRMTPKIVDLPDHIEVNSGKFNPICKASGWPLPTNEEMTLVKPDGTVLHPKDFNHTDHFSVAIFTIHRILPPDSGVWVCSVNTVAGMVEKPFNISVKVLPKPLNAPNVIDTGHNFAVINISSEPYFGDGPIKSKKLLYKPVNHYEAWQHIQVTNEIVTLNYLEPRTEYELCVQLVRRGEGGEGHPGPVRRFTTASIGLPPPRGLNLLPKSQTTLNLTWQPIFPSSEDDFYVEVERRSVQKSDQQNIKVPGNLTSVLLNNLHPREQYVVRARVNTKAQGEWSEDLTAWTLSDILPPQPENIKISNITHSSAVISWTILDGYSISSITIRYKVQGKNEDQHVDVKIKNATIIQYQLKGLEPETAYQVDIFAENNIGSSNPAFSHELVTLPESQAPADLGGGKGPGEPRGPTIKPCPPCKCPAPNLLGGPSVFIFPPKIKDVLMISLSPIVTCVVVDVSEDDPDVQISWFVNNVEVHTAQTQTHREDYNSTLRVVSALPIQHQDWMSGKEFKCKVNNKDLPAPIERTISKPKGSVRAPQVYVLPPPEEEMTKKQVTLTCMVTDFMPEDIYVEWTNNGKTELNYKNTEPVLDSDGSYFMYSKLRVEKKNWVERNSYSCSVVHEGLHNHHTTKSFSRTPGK


Tests used:
hTie2 (EGF) = biological target: T2, hTie2 (EGF) (human, UniProt Q02763 210-344); assay: Luminex bead binding
T2 construct: Domain-deletion construct linked to Luminex beads
T2 sequence (Q02763 other isoform, or with tags, fused parts or gaps limits assumed): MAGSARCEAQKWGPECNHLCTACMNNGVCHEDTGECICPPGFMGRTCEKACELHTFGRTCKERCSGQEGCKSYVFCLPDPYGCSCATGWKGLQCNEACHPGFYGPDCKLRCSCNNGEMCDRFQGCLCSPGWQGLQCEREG
Protocol: (§1) For binding, 25 μl of anti-Tie2 antibody (25 μg/ml) was added to 75 μl of the above created Luminex bead mixture (3×10³ beads per construct) in binding buffer (PBS, 0.05% Tween 20, 1 mg/ml BSA, 0.05% sodium azide) into a 96 well filter plate (Millipore). Incubation was at room temperature (RT) for 90 min or overnight at 4° C. with shaking. The beads were washed 3× with washing buffer (PBS+0.05% Tween 20) resuspended in 100 μl binding buffer containing PE (phycoerythrine)-labeled anti human kappa or PE-labeled anti mouse Fab secondary antibody and incubated at RT for 45 min with shaking. Samples were washed 2× more and binding signal (MFI) for each bead was determined using a Luminex L200 or FLEXMAP3D instrument. Bead linked human Tie2 was used as positive control and bead linked human Tie1 was used to measure family cross-reactivity. In general MFI signals greater than 500 units represent significant binding.

hTie2 (Ig1-Ig2-EGF) = biological target: T3, hTie2 (Ig1-Ig2-EGF) (human, UniProt Q02763 24-344); assay: Luminex bead binding
T3 construct: Domain-deletion construct; also used for H/D exchange
Protocol: as §1

hTie2 (Ig2-EGF) = biological target: T4, hTie2 (Ig2-EGF) (human, UniProt Q02763 121-344); assay: Luminex bead binding
T4 construct: Domain-deletion construct linked to Luminex beads
T4 sequence (Q02763 other isoform, or with tags, fused parts or gaps limits assumed): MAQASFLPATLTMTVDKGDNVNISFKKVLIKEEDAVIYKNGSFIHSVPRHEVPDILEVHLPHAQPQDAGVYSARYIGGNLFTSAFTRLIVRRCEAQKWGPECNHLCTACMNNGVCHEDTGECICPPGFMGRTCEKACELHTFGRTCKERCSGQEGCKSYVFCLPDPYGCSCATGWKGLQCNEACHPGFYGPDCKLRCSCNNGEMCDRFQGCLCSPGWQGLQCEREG
Protocol: as §1

hTie2-mFc [1] = biological target: T1, hTie2-mFc; assay: Luminex beads, 25 ug/ml mAb
Protocol: as §1

hTie2 (FN) = biological target: T5, hTie2 (FN) (human, UniProt Q02763 445-730); assay: Luminex beads, 25 ug/ml mAb
T5 construct: also called hTie2 (FN)-hFc
T5 sequence (Q02763 445-730 limits assumed): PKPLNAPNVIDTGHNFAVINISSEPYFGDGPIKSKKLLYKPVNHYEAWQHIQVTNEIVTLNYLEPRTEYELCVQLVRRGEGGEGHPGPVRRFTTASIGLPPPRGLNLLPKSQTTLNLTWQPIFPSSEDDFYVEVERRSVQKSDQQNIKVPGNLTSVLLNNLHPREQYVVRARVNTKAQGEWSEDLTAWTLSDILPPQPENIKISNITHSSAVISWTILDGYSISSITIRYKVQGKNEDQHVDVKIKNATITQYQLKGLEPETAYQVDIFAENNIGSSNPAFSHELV
Protocol: as §1

hTie2 (Ig3-FN) = biological target: T6, hTie2 (Ig3-FN) (human, UniProt Q02763 350-730); assay: Luminex beads, 25 ug/ml mAb
T6 construct: also called hTie2 (Ig3, FN)-hFc
T6 sequence (Q02763 350-730 limits assumed): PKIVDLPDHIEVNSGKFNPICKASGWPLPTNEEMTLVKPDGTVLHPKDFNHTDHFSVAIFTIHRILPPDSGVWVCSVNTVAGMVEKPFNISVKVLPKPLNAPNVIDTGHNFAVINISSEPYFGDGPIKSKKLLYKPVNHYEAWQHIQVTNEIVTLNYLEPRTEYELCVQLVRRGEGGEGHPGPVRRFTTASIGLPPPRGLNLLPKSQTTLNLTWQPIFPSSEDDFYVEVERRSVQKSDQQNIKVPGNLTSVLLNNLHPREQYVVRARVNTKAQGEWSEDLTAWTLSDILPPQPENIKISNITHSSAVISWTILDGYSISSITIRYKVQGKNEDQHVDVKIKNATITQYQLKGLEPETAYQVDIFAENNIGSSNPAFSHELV
Protocol: as §1

hTie2-His [2] = biological target: T7, hTie2-His (human, UniProt Q02763 23-745); assay: SPR Biacore 37C, mAb captured
T7 construct: also called ecto-Tie2 fused to 6xHis; biotin-Tie2-His
Protocol: (§2) (Tables 3-6). Measurements were conducted on a Biacore 2000 or T200 instrument.
(§3) For antibodies with a mouse constant region (designated H1M or H2M), antibodies were immobilized onto an anti-mouse Fc sensor surface and different concentrations of human, mouse or rat Tie2 constructs (hTie2-His, mTie2-hFc and rTie2-hFc) were injected over the antibody captured surface. For antibodies in the human IgG format (designated H1H or H4H), either an anti-human Fc sensor surface (hTie2-His and hTie2-mFc) or anti-human Fab sensor surface (mTie2-hFc and rTie2-hFc) was employed depending on the Tie-2 construct applied to the antibody captured surface. Amino acid sequences of the constructs used in this Example are as follows: hTie2-His (SEQ ID NO:2); hTie2-hFc (SEQ ID NO:3); hTie2-mFc (SEQ ID NO:4); rTie2-hFc (SEQ ID NO:5); and mTie2-hFc (SEQ ID NO:6).
(§4) Kinetic rate constants—association rate (ka) and dissociation rate (kd) were determined by fitting the real time binding sensorgrams to a 1:1 binding model with mass transport limitation using Scrubber 2.0 curve fitting software. The equilibrium dissociation constant (KD) and dissociative half-life (T½) were calculated from the kinetic rate constants as: KD (M)=kd/ka; and T½ (min)=(In2/(60*kd).).

hTie2-mFc [3] = biological target: T1, hTie2-mFc; assay: SPR Biacore 37C, mAb captured
Protocol: as §2, §3, §4

hTie2-His [4] = biological target: T7, hTie2-His; assay: SPR Biacore 25C, mAb captured
Protocol: as §2, §3, §4

hTie2-mFc [5] = biological target: T1, hTie2-mFc; assay: SPR Biacore 25C, mAb captured
Protocol: as §2, §3, §4

mTie2-hFc = biological target: T8, mTie2-hFc (mouse); assay: SPR Biacore 25C, mAb captured
T8 construct: also called mouse Tie2
Protocol: as §2, §3, §4

rTie2-hFc = biological target: T9, rTie2-hFc (rat); assay: SPR Biacore 25C, mAb captured
T9 construct: also called rat Tie2
T9 sequence (chain, as listed by the source limits assumed): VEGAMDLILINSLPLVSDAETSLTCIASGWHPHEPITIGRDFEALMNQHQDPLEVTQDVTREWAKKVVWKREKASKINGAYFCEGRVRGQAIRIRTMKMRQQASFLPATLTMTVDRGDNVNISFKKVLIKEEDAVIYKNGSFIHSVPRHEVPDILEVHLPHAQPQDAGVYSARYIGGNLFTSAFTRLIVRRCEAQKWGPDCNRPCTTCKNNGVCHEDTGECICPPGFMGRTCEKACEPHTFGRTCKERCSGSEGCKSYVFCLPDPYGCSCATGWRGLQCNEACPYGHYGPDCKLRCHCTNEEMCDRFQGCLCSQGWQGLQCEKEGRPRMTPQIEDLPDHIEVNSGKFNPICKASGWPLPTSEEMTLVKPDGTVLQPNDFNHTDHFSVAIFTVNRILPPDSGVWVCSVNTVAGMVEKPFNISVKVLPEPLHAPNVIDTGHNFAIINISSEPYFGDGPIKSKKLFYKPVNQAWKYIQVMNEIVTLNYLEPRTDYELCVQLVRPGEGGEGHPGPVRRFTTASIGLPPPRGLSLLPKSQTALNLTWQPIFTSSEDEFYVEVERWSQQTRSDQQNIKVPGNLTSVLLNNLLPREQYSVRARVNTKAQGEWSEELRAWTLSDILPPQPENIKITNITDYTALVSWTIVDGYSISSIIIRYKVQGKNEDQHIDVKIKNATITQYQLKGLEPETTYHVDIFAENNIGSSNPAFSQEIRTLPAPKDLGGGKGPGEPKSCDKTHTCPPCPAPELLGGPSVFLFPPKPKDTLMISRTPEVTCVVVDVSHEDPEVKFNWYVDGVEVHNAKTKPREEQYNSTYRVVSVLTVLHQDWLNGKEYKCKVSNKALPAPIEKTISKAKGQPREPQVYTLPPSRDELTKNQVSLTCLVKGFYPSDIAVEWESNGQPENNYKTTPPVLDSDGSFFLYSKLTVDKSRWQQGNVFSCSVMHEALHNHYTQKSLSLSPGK
Protocol: as §2, §3, §4

| Binder | binding result (hTie2 (EGF)) | binding result (hTie2 (Ig1-Ig2-EGF)) | binding result (hTie2 (Ig2-EGF)) | MFI (hTie2-mFc [1]) [MFI] | MFI (hTie2 (FN)) [MFI] | MFI (hTie2 (Ig3-FN)) [MFI] | Kd (hTie2-His [2]) [nM] | T½ (hTie2-His [2]) [min] | koff (hTie2-His [2]) [s⁻¹] | kon (hTie2-His [2]) [M⁻¹ s⁻¹] | Kd (hTie2-mFc [3]) [nM] | T½ (hTie2-mFc [3]) [min] | koff (hTie2-mFc [3]) [s⁻¹] | kon (hTie2-mFc [3]) [M⁻¹ s⁻¹] | Kd (hTie2-His [4]) [nM] | T½ (hTie2-His [4]) [min] | koff (hTie2-His [4]) [s⁻¹] | kon (hTie2-His [4]) [M⁻¹ s⁻¹] | Kd (hTie2-mFc [5]) [nM] | T½ (hTie2-mFc [5]) [min] | further results |
| --- | --- | --- | --- | --- | --- | --- | --- | --- | --- | --- | --- | --- | --- | --- | --- | --- | --- | --- | --- | --- | --- |
| H1H2339B (antibody, V domains shown, Tested as H1H2339B (human IgG format, H1H prefix)) VH: EVQLVESGGGLVQPGGSLRLSCAASGFTFSSYAMNWVRQAPGKGLEWVSSISGSGGNTYYADSVKGRFTISRDNSKNTLYLQLNSLRAEDTAVYYCAKDHSLSWYRNVFDIWGQGTMVTVSS VL: not shown | no binding (tested: MFI >500 = significant binding) | no binding (tested: MFI >500 = significant binding) | no binding (tested: MFI >500 = significant binding) | 2910 | 4530 | 3840 | 72 | 2 | 0.00488 | 67800 | 1.53 | 39 | 0.000295 | 193000 | 22.4 | 9 | 0.00125 | 55800 | 0.67 | 114 | koff (hTie2-mFc [5]): 0.000102 s⁻¹; kon (hTie2-mFc [5]): 151000 M⁻¹ s⁻¹; Kd (mTie2-hFc): 56.3 nM; T½ (mTie2-hFc): 4 min; koff (mTie2-hFc): 0.00263 s⁻¹; kon (mTie2-hFc): 46800 M⁻¹ s⁻¹; binding result (rTie2-hFc): no binding |
| H1H2340B (antibody, V domains shown, Tested as H1H2340B (human IgG format, H1H prefix); also called HIH2340B) VH: EVQLVESGGGLVQPGGSLRLSCAASGFTFSRYWMSWVRQAPGMGLEWVANIKQDGSEKNYVDSVKGRFTVSRDNAKNSLYLQMNSLRAEDTAVYYCASAIFGVVITSYWGQGTLVTVSS VL: not shown | no binding (tested: MFI >500 = significant binding) | no binding (tested: MFI >500 = significant binding) | no binding (tested: MFI >500 = significant binding) | 3010 | 5150 | 4600 | 102 | 1 | 0.00998 | 97500 | 2.58 | 22 | 0.000515 | 200000 | 49.2 | 3 | 0.00345 | 70100 | 1.16 | 60 | koff (hTie2-mFc [5]): 0.000191 s⁻¹; kon (hTie2-mFc [5]): 165000 M⁻¹ s⁻¹; Kd (mTie2-hFc): 49.6 nM; T½ (mTie2-hFc): 2 min; koff (mTie2-hFc): 0.00672 s⁻¹; kon (mTie2-hFc): 136000 M⁻¹ s⁻¹; Kd (rTie2-hFc): 25.9 nM; T½ (rTie2-hFc): 3 min; koff (rTie2-hFc): 0.00371 s⁻¹; kon (rTie2-hFc): 143000 M⁻¹ s⁻¹ |
